# Laboratory results: patent US7662384B2, “Use of anti-α5β1 antibodies to inhibit cancer cell proliferation” (Facet Biotech Corporation, priority 2004, dated 2010)
# Columns and labels:
# COLO 357 = test: M200 in vitro cell proliferation assay; assay type: cell-based; settings: COLO 357 (pancreas), 4-day assay
# Method: (§1) Cancer cell lines were plated at a density of 2500 cells/well in 96-well plates in IMDM with supplements in the presence or absence of 10% FBS. At the time of plating, cells were challenged with various concentrations M200 or a non-function blocking anti-α5 antibody, VC5. Four days later, cell viability was assessed by the CellTiter 96 AQueous Non-Radioactive Cell Proliferation Assay (Promega) according to the manufacturer's instructions. All growth studies were done at least 3 times in triplicate.
# CAPAN-2 = test: M200 in vitro cell proliferation assay; assay type: cell-based; settings: CAPAN-2 (pancreas), 4-day assay
# Method: as §1
# H460 = test: M200 in vitro cell proliferation assay; assay type: cell-based; settings: H460 (lung), 4-day assay
# Method: as §1
# C32 = test: M200 in vitro cell proliferation assay; assay type: cell-based; settings: C32 (melanoma), 4-day assay
# Method: as §1
# A549 = test: M200 in vitro cell proliferation assay; assay type: cell-based; settings: A549 (lung), 4-day assay
# Method: as §1
# HT144 = test: M200 in vitro cell proliferation assay; assay type: cell-based; settings: HT144 (melanoma), 4-day assay
# Method: as §1
# UACC-62 = test: M200 in vitro cell proliferation assay; assay type: cell-based; settings: UACC-62 (melanoma), 4-day assay
# Method: as §1
# SN12C = test: M200 in vitro cell proliferation assay; assay type: cell-based; settings: SN12C (renal), 4-day assay
# Method: as §1
# DU145 = test: M200 in vitro cell proliferation assay; assay type: cell-based; settings: DU145 (prostate), 4-day assay
# Method: as §1
# ES-2 = test: M200 in vitro cell proliferation assay; assay type: cell-based; settings: ES-2 (ovarian), 4-day assay
# Method: as §1
# C8161 = test: M200 in vitro cell proliferation assay; assay type: cell-based; settings: C8161 (melanoma), 4-day assay
# Method: as §1
# HT1080 = test: M200 in vitro cell proliferation assay; assay type: cell-based; settings: HT1080 (fibrosarcoma), 4-day assay
# Method: as §1
# A2058 = test: M200 in vitro cell proliferation assay; assay type: cell-based; settings: A2058 (melanoma), 4-day assay
# Method: as §1
# SW1990 = test: M200 in vitro cell proliferation assay; assay type: cell-based; settings: 4-day assay
# Method: as §1
# A498 = test: M200 in vitro cell proliferation assay; assay type: cell-based; settings: A498 (renal), 4-day assay
# Method: as §1
# 786-0 = test: M200 in vitro cell proliferation assay; assay type: cell-based; settings: 786-0 (renal), 4-day assay
# Method: as §1
# A375 = test: M200 in vitro cell proliferation assay; assay type: cell-based; settings: A375 (melanoma), 4-day assay
# Method: as §1
# HT1376 = test: M200 in vitro cell proliferation assay; assay type: cell-based; settings: HT1376 (bladder), 4-day assay
# Method: as §1
# CHL-1 = test: M200 in vitro cell proliferation assay; assay type: cell-based; settings: CHL-1 (melanoma), 4-day assay
# Method: as §1
# HCT-116 = test: M200 in vitro cell proliferation assay; assay type: cell-based; settings: HCT-116 (colon), 4-day assay
# Method: as §1
# EKVX = test: M200 in vitro cell proliferation assay; assay type: cell-based; settings: EKVX (lung), 4-day assay
# Method: as §1
# SW839 = test: M200 in vitro cell proliferation assay; assay type: cell-based; settings: SW839 (renal), 4-day assay
# Method: as §1
# MIA PACA-2 = test: M200 in vitro cell proliferation assay; assay type: cell-based; settings: MIA PACA-2 (pancreas), 4-day assay
# Method: as §1
# angiogenesis = settings: monkey eye model; cited from earlier work
# [1] = target: α5β1 integrin binding to fibronectin (Homo sapiens, UniProt P05556+P08648); test: in vitro activity assay: inhibition of binding of α5β1 to fibronectin; assay type: biochemical
# Sequence of α5β1 integrin binding to fibronectin (P08648 42-894 limits assumed): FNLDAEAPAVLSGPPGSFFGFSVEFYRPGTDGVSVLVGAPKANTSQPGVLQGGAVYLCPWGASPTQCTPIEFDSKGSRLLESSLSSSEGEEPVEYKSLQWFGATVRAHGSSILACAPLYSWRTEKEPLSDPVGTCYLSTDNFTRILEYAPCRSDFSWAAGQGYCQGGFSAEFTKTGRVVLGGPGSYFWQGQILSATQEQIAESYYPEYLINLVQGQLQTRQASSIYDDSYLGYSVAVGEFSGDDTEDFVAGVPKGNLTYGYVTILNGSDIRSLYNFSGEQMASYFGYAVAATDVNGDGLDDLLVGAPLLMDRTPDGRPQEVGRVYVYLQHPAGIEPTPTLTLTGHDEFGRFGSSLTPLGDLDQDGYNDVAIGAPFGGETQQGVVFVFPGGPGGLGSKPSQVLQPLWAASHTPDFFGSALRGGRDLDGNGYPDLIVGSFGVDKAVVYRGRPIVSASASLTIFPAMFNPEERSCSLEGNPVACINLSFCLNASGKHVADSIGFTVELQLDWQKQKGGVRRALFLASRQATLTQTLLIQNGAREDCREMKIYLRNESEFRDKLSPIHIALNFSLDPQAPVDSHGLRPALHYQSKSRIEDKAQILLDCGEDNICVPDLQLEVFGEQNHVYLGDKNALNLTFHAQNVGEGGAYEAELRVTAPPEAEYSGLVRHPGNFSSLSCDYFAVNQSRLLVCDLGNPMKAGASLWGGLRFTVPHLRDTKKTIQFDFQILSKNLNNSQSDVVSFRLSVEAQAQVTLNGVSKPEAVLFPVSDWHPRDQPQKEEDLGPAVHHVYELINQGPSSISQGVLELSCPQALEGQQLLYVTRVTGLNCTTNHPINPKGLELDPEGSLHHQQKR
# Sequence of α5β1 integrin binding to fibronectin (P08648 895-1049 limits assumed): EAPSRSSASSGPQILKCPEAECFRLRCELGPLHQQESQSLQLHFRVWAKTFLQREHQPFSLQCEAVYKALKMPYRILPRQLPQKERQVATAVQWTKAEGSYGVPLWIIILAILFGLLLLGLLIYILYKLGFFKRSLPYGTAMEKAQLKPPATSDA
# Sequence of α5β1 integrin binding to fibronectin (P05556 21-798): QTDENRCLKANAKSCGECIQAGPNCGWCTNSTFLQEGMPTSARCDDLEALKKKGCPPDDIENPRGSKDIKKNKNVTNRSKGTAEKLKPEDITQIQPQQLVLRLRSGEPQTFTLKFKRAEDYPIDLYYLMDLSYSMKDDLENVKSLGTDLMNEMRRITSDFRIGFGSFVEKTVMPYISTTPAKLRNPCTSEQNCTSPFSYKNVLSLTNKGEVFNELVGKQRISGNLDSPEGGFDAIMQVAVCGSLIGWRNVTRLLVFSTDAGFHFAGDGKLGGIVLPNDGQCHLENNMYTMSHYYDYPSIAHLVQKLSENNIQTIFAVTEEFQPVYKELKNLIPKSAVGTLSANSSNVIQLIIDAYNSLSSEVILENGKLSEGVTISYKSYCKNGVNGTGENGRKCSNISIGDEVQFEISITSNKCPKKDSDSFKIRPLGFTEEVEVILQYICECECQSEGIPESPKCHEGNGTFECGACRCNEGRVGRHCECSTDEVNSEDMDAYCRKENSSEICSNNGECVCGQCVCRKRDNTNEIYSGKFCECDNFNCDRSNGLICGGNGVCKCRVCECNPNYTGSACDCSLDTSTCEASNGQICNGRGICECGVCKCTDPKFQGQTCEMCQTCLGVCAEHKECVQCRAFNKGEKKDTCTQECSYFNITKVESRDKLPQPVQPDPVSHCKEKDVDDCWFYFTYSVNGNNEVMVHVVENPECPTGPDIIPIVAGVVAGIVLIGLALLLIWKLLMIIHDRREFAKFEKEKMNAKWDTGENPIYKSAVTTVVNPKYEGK
molecule,measurement,setting,value
"M200: chimeric IgG4 anti-α5β1 antibody derived from IIA1; generic name volociximab (antibody, V domains shown, chimeric antibody, chimeric IgG4 anti-α5β1 antibody derived from IIA1; generic name volociximab) VH: MAVLGLLLCLVTFPSCVLSQVQLKESGPGLVAPSQSLSITCTISGFSLTDYGVHWVRQPPGKGLEWLVVIWSDGSSTYNSALKSRMTIRKDNSKSQVFLIMNSLQTDDSAMYYCARHGTYYGMTTTGDALDYWGQGTSVTVSS VL: MDFQVQIFSFLLISASVIMSRGQIVLTQSPAIMSASLGERVTMTCTASSSVSSNYLHWYQQKPGSAPNLWIYSTSNLASGVPARFSGSGSGTSYSLTISSMEAEDAATYYCHQYLRSPPTFGGGTKLEIKDMSVDMSV",% Growth Inhibition +Serum,COLO 357; 10% FBS,0%
same,% Growth Inhibition −Serum,COLO 357; absence of serum,0%
same,% Growth Inhibition +Serum,CAPAN-2; 10% FBS,0%
same,% Growth Inhibition −Serum,CAPAN-2; absence of serum,0%
same,% Growth Inhibition +Serum,H460; 10% FBS,0%
same,% Growth Inhibition −Serum,H460; absence of serum,40%
same,% Growth Inhibition +Serum,C32; 10% FBS,0%
same,% Growth Inhibition −Serum,C32; absence of serum,0%
same,% Growth Inhibition +Serum,A549; 10% FBS,0%
same,% Growth Inhibition −Serum,A549; absence of serum,40%
same,% Growth Inhibition +Serum,HT144; 10% FBS,0%
same,% Growth Inhibition −Serum,HT144; absence of serum,0%
same,% Growth Inhibition +Serum,UACC-62; 10% FBS,0%
same,% Growth Inhibition −Serum,UACC-62; absence of serum,0%
same,% Growth Inhibition +Serum,SN12C; 10% FBS,0%
same,% Growth Inhibition −Serum,SN12C; absence of serum,5%
same,% Growth Inhibition +Serum,DU145; 10% FBS,0%
same,% Growth Inhibition −Serum,DU145; absence of serum,0%
same,% Growth Inhibition +Serum,ES-2; 10% FBS,0%
same,% Growth Inhibition −Serum,ES-2; absence of serum,0%
same,% Growth Inhibition +Serum,C8161; 10% FBS,0%
same,% Growth Inhibition −Serum,C8161; absence of serum,0%
same,% Growth Inhibition +Serum,HT1080; 10% FBS,0%
same,% Growth Inhibition −Serum,HT1080; absence of serum,0%
same,% Growth Inhibition +Serum,A2058; 10% FBS,0%
same,% Growth Inhibition −Serum,A2058; absence of serum,0%
same,% Growth Inhibition +Serum,SW1990; 10% FBS,0%
same,% Growth Inhibition −Serum,SW1990; absence of serum,10%
same,% Growth Inhibition +Serum,A498; 10% FBS,0%
same,% Growth Inhibition −Serum,A498; absence of serum,5%
same,% Growth Inhibition +Serum,786-0; 10% FBS,0%
same,% Growth Inhibition −Serum,786-0; absence of serum,10%
same,% Growth Inhibition +Serum,A375; 10% FBS,0%
same,% Growth Inhibition −Serum,A375; absence of serum,5%
same,% Growth Inhibition +Serum,HT1376; 10% FBS,0%
same,% Growth Inhibition −Serum,HT1376; absence of serum,0%
same,% Growth Inhibition +Serum,CHL-1; 10% FBS,0%
same,% Growth Inhibition −Serum,CHL-1; absence of serum,0%
same,% Growth Inhibition +Serum,HCT-116; 10% FBS,0%
same,% Growth Inhibition −Serum,HCT-116; absence of serum,15%
same,% Growth Inhibition +Serum,EKVX; 10% FBS,0%
same,% Growth Inhibition −Serum,EKVX; absence of serum,10%
same,% Growth Inhibition +Serum,SW839; 10% FBS,0%
same,% Growth Inhibition −Serum,SW839; absence of serum,30%
same,% Growth Inhibition +Serum,MIA PACA-2; 10% FBS,0%
same,% Growth Inhibition −Serum,MIA PACA-2; absence of serum,20%
same,in vivo anti-angiogenic efficacy,angiogenesis,in vivo anti-angiogenic efficacy
same,concentration that produces 80% inhibition of binding of α5β1 to fibronectin,[1],1 µg/mL
